These results are taken from patent US20230279121A1.

Test [1] deals with Rhesus macaque EGFR (Rhesus macaque) (UniProt P55245). Description: SPR.
In another test the target is human EGFR (human) (UniProt P00533). Description: SPR.
In test [2] the target is recombinant human EGFR-His (human) (UniProt P00533). Description: SPR, Biacore 8K, 37 C; protein captured on anti-hFc IgG chip, EGFR-His injected; N = 4.

In test [1], PANI-H_S62R-L_F87Y-L_D92R (scFv) yielded a Kd of 5.36 nM, a koff of 0.00112 s⁻¹ and a kon of 209000 M⁻¹ s⁻¹. Besides, in the test with human EGFR (human), the Kd was 3.38 nM, the koff was determined as 0.00099 s⁻¹ and the kon turned out to be 293000 M⁻¹ s⁻¹.

B1: EGFR-Protein-4 (bispecific antibody, part only; not given: unrelated Fab, Fc and junctions, not shown: another chain or arm of the molecule; a dimerising Fc or GST)
scFv: DIQMTQSPSSLSASVGDRVTITCQASQDISNYLNWYQQKPGKAPKLLIYDASNLETGVPSRFSGSGSGTDFTFTISSLQPEDIATYYCQHFRHLPLAFGCGTKVEIKGGGGSGGGGSGGGGSGGGGSQVQLQESGPGLVKPSETLSLTCTVSGGSVSSGDYYWTWIRQSPGKCLEWIGHIYYSGNTNYNPSLKSRLTISIDTSKTQFSLKLSSVTAADTAIYYCVRDRVTGAFDIWGQGTMVTVSS
Take B1: in test [2], the Kd came to 2.36 nM, the off-rate (koff) was determined as 0.000745 s⁻¹ and the kon was 316000 M⁻¹ s⁻¹.
